Test results taken from US20100291089A1, “LIGAND OF REGULATING IMMUNE RESPONSE, AND USE THEREOF IN TREATING AN IMMUNE RESPONSE-RELATED DISEASE” (POSTECH ACADEMY-INDUSTRY FOUNDATION, priority 2005, published 2010).
Where no end group is shown, it is not given here. [ ]: non-standard residue; d: D form.

B1: SAA: Serum amyloid A, multi-functional apolipoprotein, 12- to 14-kDa, SEQ ID NO:19 (protein, listed as Homo sapiens)
chain: MKLLTGLVFCSLVLGVSSRSFFSFLGEAFDGARDMWRAYSDMREANYIGSDKYFHARGNYDAAKRGPGGVWAAEAISDARENIQRFFGHGAEDSLADQAANEWGRSGKDPNHFRPAGLPEKY

What was measured:
RA FLS = test: Apoptosis assay (MTT, DNA fragmentation ELISA) in RA FLS; type: cell-based, human; details: for serum starvation-induced apoptosis (MTT assay, DNA fragmentation ELISA): 72 h
Procedure: Synoviocyte apoptosis was induced via 3 days of serum deprivation, or by treating the cells for 12 h with either SNP (0.7 mM) or anti-Fas IgM (0.7 μg/ml) plus cyclohexamide (CHX; 1 μg/ml). The degree of apoptosis was then evaluated via MTT assay and ELISA for DNA fragmentation. In the MTT assay, FLS were seeded in 24-well culture plates at a density of 2×10^4 cells/well. After 96 h of incubation with SAA (SEQ ID NO:19) or media alone, MTT solution was added to each of the wells, and then incubated for 2 additional hours. The reaction was halted via the removal of MTT. Thereafter, DMSO (200 μL) was added in order to solubilize the formazan crystals. The plates were then subjected to 5 minutes of gentle shaking in order to ensure that the crystals had dissolved completely, and the absorbance was read at 540 nm with a microplate reader. The cellular DNA fragmentation assay was conducted using an ELISA kit (Roche Applied Science), based on the quantitative sandwich ELISA principle, using two mouse monoclonal antibodies (Roche Applied Science) targeted against DNA and 5-bromo-2′-deoxyuridine (BrdU).
In brief, the BrdU-labeled DNA fragments of the samples were bound to the immobilized anti-DNA antibody, fixing it within the wells of a microtiter plate. The immune-complexed BrdU-labeled DNA fragments were then denatured and fixed to the surfaces of the plates via the application of microwave irradiation. In the final step, the anti-BrdU peroxidase conjugate was allowed to react with the BrdU that had been incorporated into the DNA. After the removal of the unbound peroxidase conjugates, the quantity of peroxidase bound within the immune complex was determined photometrically, using TMB as a substrate.

human neutrophils = test: Intracellular calcium mobilization (fura-2) in human neutrophils; type: cell-based; details: 1 M PACAP27 and 10 nM WKYMVm
Procedure: Neutrophils were stimulated with 1 μM of PACAP27 (SEQ ID NO:1), PACAP38 (SEQ ID NO:2), or VIP (SEQ ID NO:3), and calcium concentrations were measured for 10 min. In order to measure EKR phosphorylation, each peptide hormones was used with 1 μM concentrations for 5 min. For cAMP measurement, each peptide hormones was used with 1 μM concentrations for 10 min.
Intracellular calcium concentrations ([Ca^2+]i) were determined using Grynkiewicz's method with fura-2/AM, as described in “Grynkiewicz, G., M. Poenie, and R. Y. Tsien. 1985. […] J. Biol. Chem. 260:3440-3450”. Briefly, the cells prepared in Example 1.2 were incubated with 3 µM fura-2/AM at 37° C. for 50 minutes in fresh serum free RPMI 1640 medium with continuous stirring. The incubated cells (2×10^6) were aliquoted for each assay in Ca^2+-free Locke's solution (154 mM NaCl, 5.6 mM KCl, 1.2 mM MgCl2, 5 mM HEPES (pH 7.3), 10 mM glucose, and 0.2 mM EGTA). Fluorescence changes at 340 and 380 nm using a common emission wavelength of 500 nm were measured, and fluorescence ratios were converted to [Ca2+]i, as described in above Grynkiewicz, G. et al.

HUVECs [1] = test: HUVEC tube formation assay on Matrigel; type: cell-based, human; details: SAA 5 μM, 18 h
Procedure: The wounding migration and tube formation activity of the HUVECs were measured as previously described (30, 31). In brief, HUVECs plated at confluence on 60-mm culture dishes were wounded with pipette tips, then treated with SAA (SEQ ID NO:19) (0-5 μg/ml), WKYMVm (SEQ ID NO:5) (10 nM), or VEGF (20 ng/ml) in M199 medium, supplemented with 1% serum and 1 mM thymidine. After 12 h of incubation, migration was quantitated via counts of the cells migrating beyond the reference line. […] After 18 h of incubation, the cell morphology was visualized via phase-contrast microscopy and photographed.

aortic rings = test: Rat aorta ring assay; details: ex vivo, 7 days
Procedure: Aortas from male Sprague-Dawley rats were cross-sectioned into rings, and mounted onto polymerized Matrigel dishes. Matrigel (150 μl) was then positioned on top and allowed to gel. After 7 days, the aortic rings, incubated with PBS, SAA (SEQ ID NO:19) (3 and 5 μg/ml), WKYMVm (SEQ ID NO:5) (10 nM), VEGF (20 ng/ml), or FBS (10%) were analyzed under an inverted microscope.

HUVECs [2] = test: HUVEC proliferation ([3H]-thymidine incorporation); type: cell-based, human; details: 48 h
Procedure: In brief, fresh synovial tissues were minced into 2- to 3-mm pieces, then treated for 4 h with 4 mg/ml type I collagenase (Worthington Biochemical), and maintained in Dulbecco's Modified Eagle's Medium (DMEM) containing 10% FBS at 37° C. in an atmosphere containing 5% CO2. […] MH7A cells, the immortalized synoviocytes that harbor the SV40 T antigen, were grown in DMEM supplemented with 10% FBS, as previously described (Miyazawa, K, A. Mori, and H. Okudaira. 1998. Establishment and characterization of a novel human rheumatoid fibroblast-like synoviocyte line, MH7A, immortalized with S[…] antigen. J. Biochem. 124: 1153-1162), and then employed in some of the experiments. Human umbilical vein endothelial cells (HUVECs) were isolated from fresh human umbilical cords via collagenase (Worthington Biochemical) digestion, and then maintained in 20% FBS-containing M-199 medium (Sigma, St. Louis, Mo.), as previously described. All HUVECs were used after no more than five passages. The RA FLS, OA FLS, and HUVECs were plated onto 24-well culture dishes at a density of 2×10^4 cells/well, and then permitted to attach overnight. […] Cell growth was also evaluated via cell counts. Control and mitogen-treated cells were harvested by trypsinization, and the number of cells was determined with a hemocytometer, under ×100 magnification.

Row | Molecule | serum starvation-induced apoptosis (MTT assay, DNA fragmentation ELISA) (RA FLS) | calcium signaling on sequential stimulation (cross-desensitization) (human neutrophils) | formation of tube-like structures (HUVECs [1]) | sprouting of endothelial cells from aortic rings (aortic rings) | concentration of maximum effects on HUVEC DNA synthesis (HUVECs [2]) [µM] | DNA synthesis in HUVECs (HUVECs [2]; SAA 0.1 to 5 μM) | DNA fragmentation induced by SNP (0.7 mM) or anti-Fas (0.7 μg/ml) plus CHX (1 μg/ml) (RA FLS; SAA 3 μM, 12 h)
1 | WKYMVm: specific agonist peptide for FPRL1, SEQ ID NO:5 (WKYMV[dM]; listed as Homo sapiens) | mitigating starvation-induced cell death | bidirectional desensitization | – | – | – | – | –
2 | B1 | dose-dependent inhibition | – | far superior | increased as the result of SAA treatment, in a dose-dependent manner | 5 | dose-dependent manner | blocked almost completely
